Data reported in the supplement of paper PMC12667976.

B1: library; numbered along this chain (parent)
chain: MATDAALRRLLRLHRTEIAVAVDSAFPLLHALADHDVVPEDKFQETLHLKEKEGCPQAFHALLSWLLTQDSTAILDFWRVLFKDYNLERYGRLQPILDSFPKDVDLSQPRKGRKPPAVPKALVPPPRLPTKRKASEEARAAAPAALTPRGTASPGSQLKAKPPKKPESSAEQQRLPLGNGIQTMSASVQRAVAMSSGDVPGARGAVEGILIQQVFESGGSKKCIQVGGEFYTPSKFEDSGSGKNKARSSSGPKPLVRAKGAQGAAPGGGEARLGQQGSVPAPLALPSDPQLHQKNEDECAVCRDGGELICCDGCPRAFHLACLSPPLREIPSGTWRCSSCLQATVQEVQPRAEEPRPQEPPVETPLPPGLRSAGEEVRGPPGEPLAGMDTTLVYKHLPAPPSAAPLPGLDSSALHPLLCVGPEGQQNLAPGARCGVCGDGTDVLRCTHCAAAFHWRCHFPAGTSRPGTGLRCRSCSGDVTPAPVEGVLAPSPARLAPGPAKDDTASHEPALHRDDLESLLSEHTFDGILQWAIQSMARPAAPFPS

Variants of: B1
Test: AIRE transcriptional activation functional score (insulin promoter-GFP; nonsense median 0, synonymous median 1) (normalised score); higher = higher AIRE activity (more reporter activation)
Conditions: with insulin promoter-GFP reporter in HEK293
In short: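 Integration of codon-optimized AIRE NNN-codon libraries (three regions) by Bxb1 recombinase was done in Flp-In T-REx HEK293 landing-pad cells containing an insulin core promoter-GFP reporter. Tile-sequencing covered the top 10% GFP cells and the unselected integrants, drawn from mCherry+, BFP− cells sorted at day 7 and grown 7 days. Functional score means the enrichment of a variant in select versus non-select, minus that of wild type. Variants with at least 10 counts per million in non-select were rescaled to nonsense median 0 and synonymous median 1, and the biological replicates were averaged.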

AIRE transcriptional activation functional score, by site and new letter:
E363: W 1.59 | L 1.29 | Q 0.775 | A 1.1 | C 1.27 | D 0.917 | Y 1.28 | F 1.34 | S 1.04 | N 1.09 | K 1.09 | P 0.843 | V 1.14 | R 1.21 | M 1.7 | G 1.02 | I 1.02 | H 1.19 | T 1.29
P365: K 1.17 | T 0.843 | G 0.47 | F 1.36 | D 0.214 | N 0.389 | I 0.733 | Y 1.75 | Q 0.92 | S 1.14 | M 1.49 | C 1.05 | A 1.05 | L 1.07 | W 1.45 | H 0.594 | E 1.33 | R 1.28 | V 0.952
Q358: N 1.18 | W 1.27 | V 1.07 | R 1.17 | P 1.05 | T 0.929 | S 1.04 | M 1.12 | Y 1.04
V377: S 0.916 | C 1.32 | P 1.28 | M 0.944 | D 0.248 | A 0.734 | T 1.37 | R 1.09 | K 0.952 | F 1.15 | N 1.2 | E 1.81 | W 1.82 | G 1.16 | L 1.19 | Q 0.854 | I 1.15
V362: R 1.14 | H 0.807 | G 1.02 | K 1.11 | M -0.739 | L 0.999 | S 1.07 | F 0.981 | P 0.988 | Y 1.31 | A 1.13 | T 0.915 | I 1.32 | E 1.07 | C 0.914 | Q 1.16 | N 1.3 | D 1.3 | W 1.24
T364: V 0.952 | M 1.64 | Y 1.11 | P 0.694 | G 0.32 | N 0.588 | S 0.643 | L 1.22 | E 0.981 | I 0.829 | A 0.985 | Q 0.914 | R 0.983 | H 1.07 | D 0.191 | K 0.737 | W 1.73 | F 0.115
S372: E 1.3 | V 1.33 | K 1.48 | R 1.16 | A 1.16 | D 1.06 | P 1.07 | W 1.62 | C 1.31 | T 0.951 | I 0.653 | Y 1.25 | N 1.2 | G 0.89 | F 1.02 | H 1.13 | L 0.938
A373: I 0.836 | H 1.23 | P 1.13 | L 0.776 | K 1.02 | W -0.241 | F 0.264 | E 1.28 | V 0.766 | G 0.987 | R 0.736 | T 1.63 | D 1.02 | S 0.969
P360: Y 1.2 | G 1.16 | A 0.888 | L 1.06 | M 1.19 | H 1.1 | Q 0.786 | I 1.13 | R 1.02 | F 1.2 | N 1 | V 0.911 | C 1.08 | D 0.792 | S 0.994 | K 0.715 | W 1.38 | T 0.775 | E 1.22
P361: N 0.778 | Q 1.18 | D 1.15 | A 1.01 | F 1.18 | E 0.976 | T 1.12 | C 1.27 | M 1.3 | G 1.21 | H 1.14 | Y 1.13 | R 0.983 | W 1.29 | K 1.12 | I 1.09 | L 1.07 | S 1.21 | V 1.21
G369: W 0.914 | S 0.939 | N 1.1 | V 0.854 | Y 0.617 | K 1.35 | R 0.772 | D -0.344 | I 1.18 | Q 1.43 | C 1.25 | E 1.68 | F 1.46 | T 0.912 | L 1.46 | A 0.861
E375: Q 1.05 | N 1.89 | L 1.47 | K 1.35 | P 1.21 | V 1.47 | I 1.08 | S 0.907 | C 0.539 | Y 1.51 | F 1.55 | D 1.04 | T 0.785 | R 1 | A 1.18 | G 0.999 | H 1.6
E376: R 1.12 | N 1.32 | S 1.08 | V 1.24 | D 0.34 | L 1.17 | H 1.36 | I 1.36 | K 1.15 | W 1.23 | G 0.776 | F 0.443 | P 1.25 | Q 1.62 | A 0.899 | T 0.984 | Y 0.702
L366: A 0.656 | D 0.846 | Y 0.821 | C 0.406 | G 0.607 | W 1.29 | P 1.13 | H 1.21 | T 1.17 | V 0.996 | I 0.894 | S 0.837 | R 1.1 | K 1.37 | N 0.777 | Q 0.884 | F 1.02 | E 1.32 | M 0.554
P367: V 0.854 | E 1.46 | L 0.763 | D 0.924 | Y 1.39 | N 0.956 | W 1.97 | K 1.04 | C 1.47 | F 1.13 | R 1.06 | Q 1.26 | S 1.13 | T 1.17 | G 0.153 | A 0.781 | I 1.46 | M 0.302
G374: W 1.65 | F 2.03 | L 1.29 | H 0.816 | S 1.24 | C 1.55 | K 0.524 | Y 0.519 | A 1.33 | R 1.31 | I 1.18 | D 0.16 | P 1.1 | V 1.07 | T 0.972
R371: S 0.653 | I 0.173 | D 1 | P 0.614 | M -0.128 | L 1.5 | Y 1.39 | V 1.27 | T 0.753 | G 1.55 | W 1.77
E359: I 1.14 | R 1.02 | K 0.82 | C 1.11 | G 1.02 | Y 1.11 | D 0.954 | W 1.24 | L 1.01 | A 0.785 | N 0.928 | S 1.27 | P 0.935 | F 1.18 | T 0.92 | Q 0.92 | M 1.08 | V 1.08 | H 0.97
L370: T 1.03 | R 0.586 | P 1.08 | D 0.434 | F 0.823 | A 0.668 | I 1.25 | C 1.12 | V 1.03 | K 0.92 | G 1.08 | W 0.504 | Q 0.241 | H 0.944 | S 1.32 | E -0.238
P368: V 1.13 | I 1.29 | C 1.55 | K 1.38 | A 1.2 | G 1.05 | N 1.58 | E 0.965 | L 1.01 | Q 0.776 | H 1.18 | F 1.63 | R 1.04 | S 1.27 | D 0.975 | T 0.983
